Measured values from PMC12416549 (2024).
Where a chain is given by its changes, count along the chain named. Names and notes keep the numbering of the source.

B1: K62N (designed binder)
chain: MTLQELLREEALRRAEAEAFRYALELLAEKFPEQKEYLLDLAEEIESQIRSLSGVDVEDVRNFLDKEWAWVKELLAEHPAELAEVEAARAARLAELRAEVEAKVAA
B2: L41K (designed binder)
chain: B1 chain with L41K, N62K
B3: L74G (designed binder)
chain: B1 chain with N62K, L74G
B4: E77C (designed binder)
chain: B1 chain with N62K, E77C
B5: Q34D (designed binder)
chain: B1 chain with Q34D, N62K
B6: L41Q (designed binder)
chain: B1 chain with L41Q, N62K
B7: R89D (designed binder)
chain: B1 chain with N62K, R89D
B8: L39F (designed binder)
chain: B1 chain with L39F, N62K
B9: I45F (designed binder)
chain: B1 chain with I45F, N62K
B10: F63E (designed binder)
chain: B1 chain with N62K, F63E
B11: V85W (designed binder)
chain: B1 chain with N62K, V85W
B12: R61M (designed binder)
chain: B1 chain with R61M, N62K
B13: Y22P (designed binder)
chain: B1 chain with Y22P, N62K
B14: A80K (designed binder)
chain: B1 chain with N62K, A80K
B15: A28P (designed binder)
chain: B1 chain with A28P, N62K
B16: P32L (designed binder)
chain: B1 chain with P32L, N62K
B17: E10H (designed binder)
chain: B1 chain with E10H, N62K
B18: F20T (designed binder)
chain: B1 chain with F20T, N62K
B19: E9P (designed binder)
chain: B1 chain with E9P, N62K
B20: V55H (designed binder)
chain: B1 chain with V55H, N62K
B21: L38R (designed binder)
chain: B1 chain with L38R, N62K
B22: R92M (designed binder)
chain: B1 chain with N62K, R92M
B23: H78G (designed binder)
chain: B1 chain with N62K, H78G
B24: Q34I (designed binder)
chain: B1 chain with Q34I, N62K
B25: E5H (designed binder)
chain: B1 chain with E5H, N62K
B26: Y37G (designed binder)
chain: B1 chain with Y37G, N62K
B27: A105V (designed binder)
chain: B1 chain with N62K, A105V
B28: Q48T (designed binder)
chain: B1 chain with Q48T, N62K
B29: L75A (designed binder)
chain: B1 chain with N62K, L75A
B30: D40M (designed binder)
chain: B1 chain with D40M, N62K
B31: E67W (designed binder)
chain: B1 chain with N62K, E67W
B32: Y37N (designed binder)
chain: B1 chain with Y37N, N62K
B33: D56L (designed binder)
chain: B1 chain with D56L, N62K
B34: D65W (designed binder)
chain: B1 chain with N62K, D65W
B35: A102W (designed binder)
chain: B1 chain with N62K, A102W
B36: E101N (designed binder)
chain: B1 chain with N62K, E101N
B37: L96I (designed binder)
chain: B1 chain with N62K, L96I
B38: A17I (designed binder)
chain: B1 chain with A17I, N62K
B39: K30Q (designed binder)
chain: B1 chain with K30Q, N62K
B40: E44G (designed binder)
chain: B1 chain with E44G, N62K
B41: V60A (designed binder)
chain: B1 chain with V60A, N62K
B42: E10G (designed binder)
chain: B1 chain with E10G, N62K
B43: V100K (designed binder)
chain: B1 chain with N62K, V100K

Target: T1, TNFR1 (Homo sapiens, UniProt P19438)
T1 chain: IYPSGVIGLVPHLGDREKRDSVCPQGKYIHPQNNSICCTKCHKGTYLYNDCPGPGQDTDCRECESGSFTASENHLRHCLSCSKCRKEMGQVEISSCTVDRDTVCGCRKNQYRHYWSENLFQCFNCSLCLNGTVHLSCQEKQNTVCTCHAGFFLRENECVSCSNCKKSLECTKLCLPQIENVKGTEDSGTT
Experiment: yeast display SC50

Binder | apparent Kd (screen)
B1 | 0.49 nM
B2 | 11.4 nM
B3 | 6.43 nM
B4 | 1.16 nM
B5 | 5.31 nM
B6 | 2.48 nM
B7 | 2.48 nM
B8 | 0.189 nM
B9 | 3.63 nM
B10 | 0.593 nM
B11 | 0.869 nM
B12 | 0.593 nM
B13 | 4.39 nM
B14 | 0.718 nM
B15 | 2.05 nM
B16 | 0.593 nM
B17 | 3.3 nM
B18 | 1.16 nM
B19 | 20.2 nM
B20 | 1.16 nM
B21 | 4.39 nM
B22 | 0.593 nM

Binder | apparent Kd (screen)
B23 | 0.593 nM
B24 | 0.593 nM
B25 | 0.49 nM
B26 | 5.31 nM
B27 | 0.718 nM
B28 | 1.54 nM
B29 | 0.653 nM
B30 | 0.593 nM
B31 | 10.4 nM
B32 | 0.869 nM
B33 | 2.73 nM
B34 | 0.79 nM
B35 | 0.539 nM
B36 | 0.718 nM
B37 | 0.869 nM
B38 | 0.229 nM
B39 | 0.718 nM
B40 | 20.2 nM
B41 | 0.653 nM
B42 | 1.4 nM
B43 | 0.49 nM
